Measured values reported in patent publication US20200088729.

How the values were obtained:
Test in all cases: SPR
[1] = target: EZH2 (UniProt Q15910); settings: HBS-EP+, 3.25 mM MgCl2, 25 C
[2] = target: PTBP1 (UniProt P26599); settings: HBS-EP+, 3.25 mM MgCl2, 25 C
[3] = target: SUZ12 (UniProt Q15022); settings: HBS-EP+, 3.25 mM MgCl2, 25 C
[4] = target: EED (UniProt O75530); settings: HBS-EP+, 3.25 mM MgCl2, 25 C
[5] = target: T1, HaloTag-DasherGFP-3xLambdaN-V5 (synthetic construct (lambda phage N peptide)) (UniProt P03045); settings: ka 29700 1/Ms, kd 0.0012 1/s; HBS-EP+, 3.25 mM MgCl2, 25 C
T1 sequence: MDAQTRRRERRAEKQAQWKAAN

Sequence of EZH2 (Q15910 whole entry): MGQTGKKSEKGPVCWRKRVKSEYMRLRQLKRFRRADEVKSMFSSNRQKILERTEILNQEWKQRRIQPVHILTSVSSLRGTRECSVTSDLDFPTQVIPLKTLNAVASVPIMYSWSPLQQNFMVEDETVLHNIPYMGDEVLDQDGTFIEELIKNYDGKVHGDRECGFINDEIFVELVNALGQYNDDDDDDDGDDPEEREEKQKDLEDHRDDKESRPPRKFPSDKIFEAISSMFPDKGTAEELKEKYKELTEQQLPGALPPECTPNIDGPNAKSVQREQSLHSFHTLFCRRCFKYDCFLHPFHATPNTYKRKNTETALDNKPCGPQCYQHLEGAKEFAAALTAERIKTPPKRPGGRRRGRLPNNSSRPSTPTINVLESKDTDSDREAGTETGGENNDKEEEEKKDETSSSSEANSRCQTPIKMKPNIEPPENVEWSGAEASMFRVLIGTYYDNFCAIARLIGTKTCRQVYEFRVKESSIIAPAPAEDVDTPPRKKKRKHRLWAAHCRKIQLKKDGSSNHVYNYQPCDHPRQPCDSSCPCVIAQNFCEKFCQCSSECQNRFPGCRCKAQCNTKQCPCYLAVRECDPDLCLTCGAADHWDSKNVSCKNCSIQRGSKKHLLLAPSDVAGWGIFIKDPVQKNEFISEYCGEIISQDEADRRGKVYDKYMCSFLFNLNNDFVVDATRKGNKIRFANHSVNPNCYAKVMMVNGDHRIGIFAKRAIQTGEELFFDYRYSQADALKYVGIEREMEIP
Sequence of PTBP1 (P26599 whole entry): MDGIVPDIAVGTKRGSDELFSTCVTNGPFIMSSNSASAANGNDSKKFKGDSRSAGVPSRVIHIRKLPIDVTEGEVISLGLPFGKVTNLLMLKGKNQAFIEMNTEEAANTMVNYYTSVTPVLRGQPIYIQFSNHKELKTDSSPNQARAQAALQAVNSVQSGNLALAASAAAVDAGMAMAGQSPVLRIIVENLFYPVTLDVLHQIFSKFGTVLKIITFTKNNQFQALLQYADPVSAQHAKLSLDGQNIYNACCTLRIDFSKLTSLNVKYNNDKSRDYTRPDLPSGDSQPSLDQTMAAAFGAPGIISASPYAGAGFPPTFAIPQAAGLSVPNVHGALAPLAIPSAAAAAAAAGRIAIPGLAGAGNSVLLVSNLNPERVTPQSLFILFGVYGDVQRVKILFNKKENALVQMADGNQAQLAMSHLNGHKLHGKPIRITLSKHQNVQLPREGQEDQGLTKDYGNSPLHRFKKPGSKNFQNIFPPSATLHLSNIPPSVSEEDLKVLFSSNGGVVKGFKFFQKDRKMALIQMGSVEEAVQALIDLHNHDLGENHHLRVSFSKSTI
Sequence of EED (O75530 whole entry): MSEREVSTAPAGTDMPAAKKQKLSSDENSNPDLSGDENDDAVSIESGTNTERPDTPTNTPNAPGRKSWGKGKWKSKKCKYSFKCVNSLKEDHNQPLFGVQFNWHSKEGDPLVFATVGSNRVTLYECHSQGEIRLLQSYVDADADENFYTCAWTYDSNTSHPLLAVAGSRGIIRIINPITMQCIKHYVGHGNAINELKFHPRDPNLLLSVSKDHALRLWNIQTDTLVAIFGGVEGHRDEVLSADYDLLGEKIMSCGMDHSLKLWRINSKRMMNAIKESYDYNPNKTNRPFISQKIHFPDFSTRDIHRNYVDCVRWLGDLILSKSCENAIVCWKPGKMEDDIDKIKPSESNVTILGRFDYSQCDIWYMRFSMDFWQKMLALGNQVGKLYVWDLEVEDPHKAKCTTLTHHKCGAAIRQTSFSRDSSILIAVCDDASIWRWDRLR
Sequence of SUZ12 (Q15022 whole entry): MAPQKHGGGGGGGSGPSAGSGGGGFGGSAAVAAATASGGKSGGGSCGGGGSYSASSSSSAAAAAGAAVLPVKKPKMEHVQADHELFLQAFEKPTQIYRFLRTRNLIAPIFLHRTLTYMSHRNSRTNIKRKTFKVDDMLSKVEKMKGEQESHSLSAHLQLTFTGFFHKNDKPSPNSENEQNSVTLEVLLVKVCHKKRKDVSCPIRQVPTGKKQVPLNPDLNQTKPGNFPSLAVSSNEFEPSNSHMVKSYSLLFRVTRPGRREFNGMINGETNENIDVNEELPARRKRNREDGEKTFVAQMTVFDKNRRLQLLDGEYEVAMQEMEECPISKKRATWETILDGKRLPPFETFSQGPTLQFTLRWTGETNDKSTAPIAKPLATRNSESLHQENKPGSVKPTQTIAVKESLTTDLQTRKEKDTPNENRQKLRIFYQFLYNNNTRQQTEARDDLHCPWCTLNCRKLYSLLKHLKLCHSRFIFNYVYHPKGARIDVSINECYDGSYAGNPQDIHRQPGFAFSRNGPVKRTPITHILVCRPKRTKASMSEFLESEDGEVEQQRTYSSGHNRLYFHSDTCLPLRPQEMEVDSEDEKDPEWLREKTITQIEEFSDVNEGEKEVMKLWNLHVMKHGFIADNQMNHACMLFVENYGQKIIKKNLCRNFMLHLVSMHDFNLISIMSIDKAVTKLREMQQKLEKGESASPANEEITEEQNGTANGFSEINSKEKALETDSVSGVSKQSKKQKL

Substance	Kd ([1]; U-value 20)	Kd [2]	Kd [3]	Kd [4]	Kd [5]	Kd [1]	Kd ([4]; U-value 20)	Kd ([2]; U-value 20)	Kd ([3]; U-value 26 flagged with asterisk (poor fit))
Xist E-repeat RNA	13200 nM	59.6 nM	60600 nM	1100 nM	–	–	–	–	–
MBP-5xBoxB RNA	–	104 nM	96600 nM	–	39.3 nM	66000 nM	2940 nM	–	–
MBP RNA (nt 1-240)	–	–	1350 nM	1630 nM	–	58100 nM	–	8680 nM	–
Xist A-repeat RNA	–	261 nM	–	257 nM	–	56000 nM	–	–	1790 nM
